Experimental data from patent publication US20140206628A1 (University of Washington, published 2014).
Like-named read-outs stand apart in the source and are kept apart here.

B1: HB80.3_s4_E94 (designed binder)
chain: ASTRGSGRPWKFSENVAFELALYFTNKDTPDRWAKVARYVKGRTPEEVKKHYE
B2: HB36.4_s4_E11 (designed binder)
chain: MSNAMDGQQLNRLLLEWIGAWDPFGLGKDAYDVEADAVLKAVYETNSAFDLAMRIHWIYNFAFKRKIPFVHAQKLARRLLELKQAASSPLP
B3: HB80.3_s4_E82 (designed binder)
chain: MASTRGSGRPWKFSENVAFEIALSFTNKDTPDRWAKVARYVRGRTPEEVKKHYE

What was measured:
[1] = target: T1, A/South Carolina/1/1918 (H1N1) hemagglutinin ectodomain, biotinylated (Influenza A virus A/South …); assay: yeast surface display titration
[2] = target: T1, A/South Carolina/1/1918 (H1N1) …; assay: yeast surface display titration; remark: listed apart in the source

Row | Binder | binding result [1] | binding result [2]
1 | B1 | binds | 
2 | B2 |  | binds
3 | B3 | binds | 
